From the nanobody polyreactivity screen of Harvey et al. (2022)

Assay: yeast display, Sf9 membrane polyspecificity reagent, FACS + sequencing; frameworks hold sequencing errors
How it was run: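 Galactose-induced (36–48 hours) yeast carrying a synthetic nanobody display library were exposed to 10% biotinylated, detergent-solubilized Sf9 membrane reagent at 4 °C for 1 hour. FACS followed streptavidin microbead enrichment, using low and high (top ~1%) gates for expression (anti-HA) and reagent binding (streptavidin). Colony PCR, MiSeq 2 × 250 sequencing and CDR-length filtering followed. Labels for polyreactivity reflect the gate of origin.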

| Sequence | polyreactivity (PSR sort gate) |
| --- | --- |
| QVQLVESGGGLVQAGGRLRLSCAASGITCYRYVMGWYRQAPGKERELVAAITSRGGSTSYADSVKGRFTISRDNAQNTVYLQMNSLKPEDTAVYYCAAVYRRDYDYWGQGTQVTVSS | high polyreactivity |
| QVQLVESGGGLVQAAGSLRLSCAASGLIFQNYPMGWYRQAPGKERELVARISRRGGSTYYADSVKGRFTISRDNAKNPVYLQMISLKQEDTAVYYCAAGWTRWTSKRFEYWGQGTQVTVSS | high polyreactivity |
| QVQLLESGGGLVQAGGSLRLSCPPSGFIFPRNVMGWYRQAPGKERELVAAISRSGGSTYYADSVKGRYTISRDNAKNTVYLQLNSQKPEDTAVYYCAAEIPVYQGTGDYDYWGQGTQVTVSS | low polyreactivity |
| QVQLVESGGGLVQAGGSLRLSCAASGSIFYLYAMGWYRQEPGKERELVAAINFRGGSTYADSVKGRFTISRDNAKNTVYLQMNSLKPEDTAVYYCAAKAAYRMNYWGQGTQVTVSS | high polyreactivity |
| QVQLVESGGGLVQAGGSLRLSCAASGYIFGGNTLGWYRQAPGKERELVAAISYSGTSTYYADSVKGRFTISRDNAKNTVYLQMNSLKPEDTAVYYCAARERWYGSYYWGQGTQVTVSS | high polyreactivity |
| QVQLVESGGGLVQAGGSLRLSCAASGRIFVGYALGWYRQAPGKERELVAAINRSGSSTYYADSVKGRFTISRDNAKNTDYLQMNSLKPEDTAVYYCNARSGNRYGPRYDYWGQGTQVTVSS | high polyreactivity |
| QVQLVESGGGLVQAGGSLRLSCAASGSPFYGYGMGWYRQAPVKERELVAASTRSGGSTYYADSVKGRFTRSRDNAKNTVYVQKNSLKPEDTEVYYCNKSGYKGGVGYDYWGQGTQVTVSS | high polyreactivity |
| QVQLVESGGGLVQAGGSLRLSCAASGFTFYWYTMAWNRQAPGKERELVAAISRRGGSTSYADSVKGRFTISRDNAKNTVYLQMNSLKPDDTAVYYCAKTPGWTDYDYWGQGTQVTVSS | high polyreactivity |
| QVQLVESGGGLVQAGGSLRLSCAASGIIFRYYAMGWYRQAPGKEREWVAAISSSGVSTYYADSVKGRFTISRDNAKNNVYLQMNSLKPEDTAVYYCAAVTTWRMDYWGQGTQVTVSS | high polyreactivity |
| QVQRVESVGGLVQAGGRLRLSCAASGRTFVYYTMGWYRQAPGKERELVAAISWNGDDTYYADSVKGRFTISRDNAKNTVYLQMNSLKPEDTAVYYCAKESYTDYDTYYYWGQGTQVTVSS | low polyreactivity |
| QVQLVESGGGLVQAGGRLRLSCAASGLIFDSYAMGWYRQAPGKERELVAAITYTGGSTYYADSVKGRFTISRDNAKNTVYLQMNSLKPEDTAVYYCAARSQSDRYGYWGQGTQVTVSS | high polyreactivity |
| QVQLVESGGGLVQAGGSLRLSCAASGSIFYHNAMGRYRQAPGKERELVAAITGSGGSTYYADAVKGRFTISRDKAKNTVYFQMNSLKPEDTAVYDCAADGYTKWWISWGYDYWGQGTQVTVSS | low polyreactivity |
| QVQLVESGGGLVQAGGSLRLSCAASGSIIYTNAMGWYRQAPGKERELVAAITGTTTTNYADSVKGRFTISRDNAKNTVYLQKTSLKPEDTAVYYCNADYDRSRVYYSVELYDYWGQGTQVTVSS | low polyreactivity |
| QVQLVESGVGLVQAGGSLRLSCAASGRTFGSNAMGWYRQAPGKERELVAAISRVGSTYYADSVKGRFTISRDNAKNTVYLQMNSLKPEDTAVYYCPYDYWGQGTQVTVSS | low polyreactivity |
| QVQLVESGGGLVQAGGSLRLSCAASGSIFRGNGMGWYTQAPGKERELVAAISRSGGRTYYADSVKGRFTISRDNAKNTVYLQMISLNPEDTAVYSCNAARSYQYDYWGQGTQVTVSS | high polyreactivity |
| QVQLEGSGGGLVQAGGSLRLSCAASGSIFSTNAMGWYRKAPGKERELVASISSGGGSTYYADSVKGRFTISRDTAKKTVYLQMNSLKPEDTAVYYCARRIGHGSRPYWLETWRYPYEYWGQGTQVTVSS | low polyreactivity |
| QVQLVESGGGLVQAGGSLRLSCAASGRIIKFYAMGWNRQAPGKERELVAVIRSVTRTKYADSVKGRFTISRDNAKNTVYLQLNSLKPEDTAVYYCAAREVGKMDYWGQGTQVTVSS | low polyreactivity |
| QVQLLESGGGLVQEGGSLRLSCAASGFIFSKNVMGWYRHAPGKERELVARITRSGGTTYYADSVKGRFTISRDNAKYTVYLQMNSLKPEDTAVYYCAARRYGYTSITWYDYWGQGTQVTVSS | high polyreactivity |
| QVQLVESGGGLVQAGGSLRLSCAASGSTFPDYAMGWYRQAPGKERELVAAIDGSSGSTYYADSVKGRFTISRDNAKNSVYLRMYSLKPEDTAVYYCNVVASLYTYGYWGQGTQVTVSS | low polyreactivity |
| QVQLVESGGGLVQAGGSLRLSCAASGSTFSPYVMGWYRQAPGKERELVAAITSGGITNYADSVKGRFTISRDNAKNTVYLQMNSLKPEDTAVYYCNVDRYIRDSWGDYWGQGTQVTVSS | high polyreactivity |
| QVQLVESGGGLVQAGGSLRLSCAASGSIFDPYTMGWYRHEPGKESELVAAINWSGGSTYYADSVKGRFTISRENAKYTVYLQMNSLKPEDTAVYYCNADLTSYYEEDERNDDDYWGQGTQVTVSS | low polyreactivity |
